# Measured values from patent publication US20240124553A1 (WASHINGTON UNIVERSITY, published 2024).
# B1: Mxra8-Fc (extracellular domain of mouse Mxra8 fused to mouse IgG2b Fc) (Fc fusion)
# chain: SGPSGTAAASSSLVSESVVSLAAGTQAVLRCQSPRMVWTQDRLHDRQRVVHWDLSGGPGSQRRRLVDMYSAGEQRVYEPRDRDRLLLSPSAFHDGNFSLLIRAVDRGDEGVYTCNLHHHYCHLDESLAVRLEVTEDPLLSRAYWDGEKEVLVVAHGAPALMTCINRAHVWTDRHLEEAQQVVHWDRQLPGVSHDRADRLLDLYASGERRAYGPPFLRDRVSVNTNAFARGDFSLRIDELERADEGIYSCHLHHHYCGLHERRVFHLQVTEPAFEPPARASPGNGSGHSSAPSPDPTLTRGHSIINVIVPEDHTHPSGPISTINPCPPCKECHKCPAPNLEGGPSVFIFPPNIKDVLMISLTPKVTCVVVDVSEDDPDVQISWFVNNVEVHTAQTQTHREDYNSTIRVVSTLPIQHQDWMSGKEFKCKVNNKDLPSPIERTISKIKGLVRAPQVYILPPPAEQLSRKDVSLTCLVVGFNPGDISVEWTSNGHTEENYKDTAPVLDSDGSYFIYSKLNMKTSKWEKTDSFSCNVRHEGLKNYYLKKTISRSPGK
# notes: also called mMxra8-Fc; mouse Mxra8-Fc
# Target: T1, Mayaro virus (MAYV) structural proteins on infected cells (Mayaro virus)
# T1 construct: whole, on cells
# Assay: flow cytometry, surface staining of MAYV-infected Vero cells with serial dilutions, % binding to infected cells
binder,measurement,value
B1,EC50 (read off the curve),~3 ng/mL
